Where no end group is shown, it is not given here.
What was measured:
[1] = target: T1, interaction between HPV16 E1 and E2 (Human papillomavirus type 16, UniProt P03114); test: In vitro HPV E1-E2 binding assay (co-immunoprecipitation / Western blot), HPV16 E1 and HPV16 E2; settings: increasing peptide concentrations, FIG. 6A
T1 construct: made in house; host or cells: Hi-Five insect cells infected with recombinant baculovirus (pVL1392); nuclear extracts
T1 sequence (P03114 whole entry, looked up): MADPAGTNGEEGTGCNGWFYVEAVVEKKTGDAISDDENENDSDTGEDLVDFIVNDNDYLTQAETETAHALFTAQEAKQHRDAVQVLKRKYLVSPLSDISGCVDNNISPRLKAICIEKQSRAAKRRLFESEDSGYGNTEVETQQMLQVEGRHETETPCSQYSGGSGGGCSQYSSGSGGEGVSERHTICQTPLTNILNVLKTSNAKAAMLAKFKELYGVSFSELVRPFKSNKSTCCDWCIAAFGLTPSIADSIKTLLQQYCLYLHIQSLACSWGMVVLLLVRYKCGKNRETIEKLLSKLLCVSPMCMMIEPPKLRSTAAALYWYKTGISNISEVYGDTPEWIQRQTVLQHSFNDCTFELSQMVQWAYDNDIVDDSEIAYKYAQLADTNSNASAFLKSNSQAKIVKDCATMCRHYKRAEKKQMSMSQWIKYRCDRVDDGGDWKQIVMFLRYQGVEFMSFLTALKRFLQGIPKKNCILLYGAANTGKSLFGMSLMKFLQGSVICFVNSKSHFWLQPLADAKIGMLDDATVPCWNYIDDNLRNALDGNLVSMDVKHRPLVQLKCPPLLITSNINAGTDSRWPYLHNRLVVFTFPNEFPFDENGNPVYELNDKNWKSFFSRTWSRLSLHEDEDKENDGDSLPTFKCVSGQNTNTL
Procedure: (§1) In vitro HPV E1-E2 binding assay. 300-500 ng protein from HPV16 or HPV11 EE-E1 expressing recombinant baculovirus infected cell nuclear extracts and 80-120 ng from HPV E2 baculovirus infected cell nuclear extracts were incubated in 500 μl NET-gel buffer (50 mM Tris-HCl pH7.5, 150 mM NaCl, 0.1% NP-40, 1 mM EDTA, 0.25% gelatin) at 4° C. for one hour. 1-2 μg anti-EE monoclonal antibody was added and incubated with shaking at 4° C. for one hour. Immune complexes were precipitated with protein-G agarose beads and washed twice for 30 minutes with ice cold NET-gel buffer. Precipitated proteins were detected by Western blot using appropriate primary antibodies and anti-rabbit IgG HRP or anti-mouse IgG HRP (Amersham). Membranes were blocked for one hour in TNET (10 mM Tris 7.5, 2.5 mM EDTA, 50 mM NaCl, 0.1% Tween-20) containing 4% (w/v) dry milk. Washes and antibody reactions were carried out in TNET, and proteins were visualized by chemiluminescence (Reneaissance ECL, NEN) and autoradiography. Bands were quantitated using the NIH image program.
Therefore, we reasoned that a peptide encompassing this domain of HPV16 E2 might inhibit interaction between HPV16 E1 and E2, thereby inhibiting HPV16 DNA replication (FIG. 5). In order to test this possibility, HPV16 E2 and epitope tagged full length HPV16 E1 (EE16-E1) proteins were expressed separately using baculovirus vectors. EE-E1 and associated E2 proteins were immunoprecipitated using an anti-EE epitope monoclonal antibody. Precipitated E2 was detected by Western blot using polyclonal antiserum raised to the DNA binding domain of HPV16 E2 (35). As shown in lane 2 of FIG. 6A, E2 co-immunoprecipitated with EE16-E1, but was not precipitated by the EE epitope antibody in the absence of EE16-E1 (lane 1). Peptides encompassing HPV16 E2 amino acids 29-51 (E2N-WP23) or residues 33-47 (E2N-WP15) of HPV16 E2 were then tested for inhibition of E1-E2 interaction. These peptide sequences were derived from the sequence of HPV16 E2, and were based on an alignment of amino terminal residues that are conserved among the papillomavirus E2 proteins (FIG. 5). […] Both the HPV16 E2 protein itself and the E2 derived peptides act specifically in these assays, since the E39A replication defective HPV16 E2 mutant bound only slightly to EE16-E1 (lanes 14). […] These peptides are named E2N-MP23 and E2N-MP15, respectively (see FIG. 5). […] We have previously shown that a domain spanning amino acids 421-647 of the HPV16 E1 carboxy terminus is necessary and sufficient for E2 interaction (45).

[2] = target: T2, interaction between HPV11 E1 and HPV16 E2 (Human papillomavirus 11, UniProt P04014); test: In vitro HPV E1-E2 binding assay, HPV11 E1 and HPV16 E2
T2 construct: made in house; host or cells: Hi-Five insect cells infected with recombinant baculovirus (HPV-11 EE-E1 virus a gift from Louise Chow); nuclear extracts
T2 sequence (P04014 whole entry, looked up): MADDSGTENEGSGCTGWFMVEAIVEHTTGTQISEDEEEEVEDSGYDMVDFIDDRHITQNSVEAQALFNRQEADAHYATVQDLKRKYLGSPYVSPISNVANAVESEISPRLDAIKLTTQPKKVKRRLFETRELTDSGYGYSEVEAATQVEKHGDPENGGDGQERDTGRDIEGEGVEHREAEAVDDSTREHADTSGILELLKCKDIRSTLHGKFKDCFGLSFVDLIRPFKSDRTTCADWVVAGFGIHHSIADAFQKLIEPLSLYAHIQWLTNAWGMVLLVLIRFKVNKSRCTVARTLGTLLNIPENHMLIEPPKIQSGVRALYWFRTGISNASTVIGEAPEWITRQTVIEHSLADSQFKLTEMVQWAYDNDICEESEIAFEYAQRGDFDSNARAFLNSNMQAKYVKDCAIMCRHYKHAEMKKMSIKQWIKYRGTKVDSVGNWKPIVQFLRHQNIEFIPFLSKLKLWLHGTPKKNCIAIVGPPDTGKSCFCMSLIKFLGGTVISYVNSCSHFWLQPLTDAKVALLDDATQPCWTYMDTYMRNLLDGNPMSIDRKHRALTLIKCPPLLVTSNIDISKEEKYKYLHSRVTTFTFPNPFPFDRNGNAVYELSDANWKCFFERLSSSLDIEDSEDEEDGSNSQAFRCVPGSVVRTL
Procedure: as §1
Very little is known about the physical properties of domains within the papillomavirus E1 and E2 proteins that are involved in intermolecular recognition and association. […] The effect of the E2N-WP15 peptide on these interactions was also assessed. […]

Q: With WKHMRLACAIYYKAR [E2N-MP15] as the sequence, how does the “inhibition of HPV16 E1-E2 interaction” value [1] read?
A: did not inhibit E1-E2 interaction at concentrations at which the wild type peptide could do so

Q: What about the “inhibition of interaction between HPV11 E1 and HPV16 E2” value [2] of the same sequence?
A: did not inhibit

From patent US6673354B2, “Compositions and methods for treating papillomavirus-infected cells” (priority 1998, dated 2004)
